From the supplement of paper PMC7125110
± gives the standard error. Variants at the floor of the assay were thinned out.

B1: glmS ribozyme (parent)
chain: AUAAAAGCGCCAGAACUACAGAAAUGUAGUUGACGAGGAGGAGGUUUAUCGAAUUUUCGGCGGAUGCCUCCAAA

How the values were obtained:
Settings in all cases: with glucosamine-6-phosphate
glucosamine-6-phosphate [1] = variants of: B1; test: self-cleavage kobs at 40 uM GlcN6P; higher = faster cleavage; RNA array
Summary of the method: (§1)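 Tiles bearing barcoded ribozyme variants, transcribed in situ by E. coli RNA polymerase on sequenced MiSeq chips, were imaged over ~14 h at 37 °C using a hybridised Cy3 probe. Glucosamine-6-phosphate was supplied at 40 μM to 10 mM in HEPES/KCl/Mg(OAc)2 buffer. kobs came from one- or two-exponential decay fits to normalised per-tile medians, and weighted Michaelis–Menten fits then provided kcat and KM.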

glucosamine-6-phosphate [2] = variants of: B1; test: self-cleavage kobs at 160 uM GlcN6P; higher = faster cleavage; RNA array
Summary of the method: as §1

glucosamine-6-phosphate [3] = variants of: B1; test: self-cleavage kobs at 640 uM GlcN6P; higher = faster cleavage; RNA array
Summary of the method: as §1

glucosamine-6-phosphate [4] = variants of: B1; test: self-cleavage kobs at 2500 uM GlcN6P; higher = faster cleavage; RNA array
Summary of the method: as §1

glucosamine-6-phosphate [5] = variants of: B1; test: self-cleavage kobs at 10000 uM GlcN6P; higher = faster cleavage; RNA array
Summary of the method: as §1

Variant | self-cleavage kobs at 40 uM GlcN6P (glucosamine-6-phosphate [1]) [s⁻¹] | self-cleavage kobs at 160 uM GlcN6P (glucosamine-6-phosphate [2]) [s⁻¹] | self-cleavage kobs at 640 uM GlcN6P (glucosamine-6-phosphate [3]) [s⁻¹] | self-cleavage kobs at 2500 uM GlcN6P (glucosamine-6-phosphate [4]) [s⁻¹] | self-cleavage kobs at 10000 uM GlcN6P (glucosamine-6-phosphate [5]) [s⁻¹]
G9U A42U | < 1e-05 | < 1e-05 | < 1e-05 | < 1e-05 | 
C10U U57A | < 1e-05 |  |  |  | < 1e-05
C8A U30A A48G | < 1e-05 |  |  |  | < 1e-05
G41A G63A | < 1e-05 |  | < 1e-05 |  | < 1e-05
A36G G38C U55A | < 1e-05 |  |  |  | < 1e-05
C8U A53C | < 1e-05 | < 1e-05 | < 1e-05 | < 1e-05 | < 1e-05
G7C U31C | < 1e-05 | < 1e-05 |  |  | 
A12G G13C A33U G63U | < 1e-05 |  |  |  | < 1e-05
C16G A53G C67A | 2.96e-05 ± 1.3e-05 |  |  |  | 0.000212 ± 5.9e-05
A14C C70U | 0.000159 ± 1.4e-05 | 0.000308 ± 3.9e-05 | 0.000897 ± 9.5e-05 | 0.00439 ± 0.0007 | 0.00953 ± 0.0013
G7C C11U G40U C71A | < 1e-05 |  | < 1e-05 | < 1e-05 | < 1e-05
U30G G43C | < 1e-05 |  |  | < 1e-05 | < 1e-05
A15C G32U A42U | < 1e-05 |  |  |  | < 1e-05
G9U G41C A42U G44A | < 1e-05 | < 1e-05 | < 1e-05 | < 1e-05 | 
U30C C50G U69A | 0.000101 ± 1.6e-05 |  |  |  | 0.000171 ± 2.6e-05
G35A U49G C71A | < 1e-05 |  |  |  | < 1e-05
A14C U45G A52C G63A | < 1e-05 |  |  |  | 
U30G A42U G43U A48U G59U | < 1e-05 |  |  |  | 
G41A C50A C67G | < 1e-05 |  |  |  | < 1e-05
A6U G13C | < 1e-05 |  | < 1e-05 | < 1e-05 | 
A14C A53U U69C | 5.39e-05 ± 1.6e-05 |  |  |  | 
A6G G29C G51A | < 1e-05 |  |  | < 1e-05 | < 1e-05
G60A A64U | < 1e-05 |  | < 1e-05 | < 1e-05 | 
A36G A42G A52G | < 1e-05 |  | < 1e-05 | < 1e-05 | 
G32A G40U C67G | < 1e-05 |  | < 1e-05 | < 1e-05 | 
